Substitutions are numbered along the chain they refer to. “Also recorded” adds a separate entry of the source.
Experiments:
[1] = biological target: Coa-C311-636, Coa-F311-505, Coa-R0474-505; settings: all three Coa fragments (Coa-C311-636, Coa-F311-505, Coa-R0474-505)
From the text: (§1) Apparent affinity values were generated through analysis of the half maximum binding in ELISA, using […] PRISM® Version 6.01.

[2] = test system: Coa-F, Coa-R0, Efb-N, Efb-O, Efb-A binding to Fg; assay: Inhibition by FBE5 scFv-Fc of Coa and Efb fragment binding to immobilized human Fg; design: species or system Staphylococcus aureus; settings: scFv-Fc 0.5, 5, 50 μg/ml; Coa-F, Coa-R0, Efb-N, Efb-O 10 nM; Efb-A 750 nM
Description: To assess the inhibitory activity of anti-Coa scFv-Fc antibodies, 0.5 μg/well of human Fg was immobilized at 4° C. overnight in 50 mM Carbonate Buffer, pH 9.6. Indicated amounts (50, 5, 0.5 μg/ml) of scFv-Fcs prepared in 2% BSA+1×TBS+0.05% TWEEN® 20 were pre-incubated for 1 hour with a constant concentration of Coa or Efb fragments also prepared in 2% BSA+1×TBS+0.05% TWEEN® 20 at room temperature, 250 rpm shaking. Specifically, Coa-F, Coa-R0, Efb-N and Efb-O were at a fixed concentration of 10 nM; whereas Efb-A was at 750 nM. Fg-binding activity of each protein alone was also checked (no mAb control—0 μg/ml). The Fg-coated plate was blocked with 2% BSA-TBST and washed with PBST. […] Residual bound Coa and Efb fragments were detected with HRP-conjugated (HorseRadish Peroxidase-conjugated) α-GST-tag antibody, except for Efb-N, where an HRP-conjugated α-HIS-tag was used (see FIG. 18). HRP-tagged antibodies were diluted in 2% BSA+1×TBS+0.05% TWEEN® 20 and used at 1:10000 dilution. […] HRP signal was developed using […]™ OPD tablets using manufacturer's guidelines. Binding of Coa and Efb fragments to Fg (no mAb control) was set to 100% and residual binding to Fg of Coa and Efb fragments in the presence of different concentrations of antibodies was calculated and represented.
To assess the inhibitory activity of anti-Coa scFv-Fc antibodies, 0.5 μg/well of human Fg was immobilized at 4° C. overnight in 50 mM Carbonate Buffer, pH 9.6. Indicated amounts (0, 0.5, 5, and 50 μg/ml) of scFv-Fcs were pre-incubated for 1 hour with a constant concentration of Coa or Efb fragments. Specifically, Coa-F, Coa-R0, Efb-N and Efb-O were at a fixed concentration of 10 nM; whereas Efb-A was at 750 nM. Fg-binding activity of each protein alone was also checked (no mAb control—0 μg/ml). The Fg-coated plate was blocked with 2% BSA-PBST and washed with PBST. The pre-incubated mixture of Coa/Efb and anti-Coa scFv-Fc was transferred on the Fg-coated plate. Residual bound Coa and Efb fragments were detected with HRP-conjugated (HorseRadish Peroxidase-conjugated) α-GST-tag antibody, except for Efb-N, where an HRP-conjugated α-HIS-tag was used. Binding of Coa and Efb fragments to Fg (no mAb control) was set to 100% and residual binding to Fg of Coa and Efb fragments in the presence of different concentrations of antibodies was calculated and represented.

Coa-R506-636 = biological target: T1, Coa-R506-636 (Staphylococcus aureus, UniProt P07767); format: binding; settings: 200 ng/well
T1 construct: the Coa-R is corresponding to the tandem-repeat region covering residue 506-636; GST (N); made in house; host or cells: E. coli BL21
Description: (§2) As well, binding was tested against Coa fragments, namely Coa-C311-636. Coa-F311-505. Coa-R0474-505 and Coa-R506-636. Recombinant proteins Efb-N30-105, Efb-A30-67, Efb-O68-98, Coa-C311-636, Coa-F311-505, Coa-R0474-505 and Coa-R506-636 were diluted in 50 mM sodium carbonate pH 9.6 and immobilized at the concentration of 200 ng/well for 1 hour at room temperature. Immobilized proteins were probed for recognition in a solid-phase binding assay with different quantities of LIG40 antibodies after blocking and washing. After washing, varying concentrations of LIG40 scFv-Fc antibodies were diluted in 2% BSA+1×PBS+0.05% TWEEN® 20 and incubated with the immobilized proteins for 1 hour at room temperature with shaking at 250 rpm. Bound scFv-Fcs were detected using polyclonal α-human IgG HRP-conjugated Ab diluted to 1:10000 in 2% BSA+1×PBS+0.05% TWEEN® 20. HRP-conjugated Ab was incubated for 1 hour at room temperature with shaking at 250 rpm.
as §1

Coa-C311-636 = assay: Solid-phase binding ELISA of scFv-Fc antibodies to Coa-C311-636; design: species or system Staphylococcus aureus; settings: 200 ng/well
Description: as §2, §1

[3] = test system: Coa-F311-505 and Coa-R0474-505; assay: Solid-phase binding ELISA of LIG40 antibodies to Coa-F311-505 and Coa-R0474-505; design: species or system Staphylococcus aureus; settings: 200 ng/well
Description: As well, binding was tested against Coa fragments, namely Coa-C311-636. Coa-F311-505. Coa-R0474-505 and Coa-R506-636. […] Immobilized proteins were probed for recognition in a solid-phase binding assay with different quantities of LIG40 antibodies after blocking and washing. […] HRP signal was developed with […]™ OPD using manufacturers guidelines. These 2 antibodies bound only Coa fragments in a dose dependent manner. No binding to truncated recombinant Efb proteins was observed.
For both antibodies, values in the range of 10^−10-10^−11 M were obtained.

CoaC and CoaR = assay: Peptide (CoaRO, CoaRI) inhibition of LIG40 mAbs binding to immobilized CoaC and CoaR; design: species or system Staphylococcus aureus; settings: mAbs 0.5 μg/ml; 200 ng/well
Description: To investigate if LIG40 mAbs could be inhibited by CoaRO and CoaRI peptides, CoaC and CoaR (200 ng/well) was immobilized at 4° C. overnight in 50 mM Carbonate Buffer, pH 9.6. A fixed concentration of mAbs (0.5 μg/ml) prepared in 2% BSA+1×TBS+0.05% TWEEN® 20 was added to the wells along with indicated amounts of CoaRO and CoaRI peptides prepared in 1X TBS. Incubation for 1 hour, room temperature, 250 rpm shaking followed. After washing, the levels of bound mAbs were determined using a polyclonal α-human IgG HRP-conjugated Ab diluted 1:10000 in 2% BSA+1×TBS+0.05% TWEEN® 20. […] The development was performed through […]™ OPD tablets following manufacturer's protocol. […] First, to achieve appreciable inhibition high concentration of peptides needed to be used (above 100 μM).
To investigate if LIG40 mAbs could be inhibited by CoaRO and CoaRI peptides, CoaC and CoaR (200 ng/well) was immobilized at 4° C. overnight in 50 mM Carbonate Buffer, pH 9.6. A fixed concentration of mAbs (0.5 μg/ml) was added to the wells along with, indicated amounts of CoaRO and CoaRI peptides. Incubation for 1 hour, room temperature, 250 rpm shaking followed. After washing, […] were incubated with polyclonal α-human IgG HRP-conjugated Ab. […] First, to achieve appreciable inhibition high concentration of peptides needed to be used (above 100 μM).

B1: FBE5-F11: VH SEQ ID NO: 81, VL SEQ ID NO: 111 (antibody, V domains shown)
VH: QVQLQESGGGVVQPGRSLRLSCAASGFTFSSYGMHWVRQAPGKGLEWVAVISYDGSNKYYADSVKGRFTISRDNSKNTLYLQMNSLRAEDTAVYYCAKDLASSGFDYWGQGTLVTVSS
VL: QSVLTQPPSVSAAPGQKVTISCSGSSSNIGNNYVSWYQQLPGTAPKLLIYDNNKRPSGIPDRFSGSKSGTSATLGITGLQTGDEADYYCGTWDSSLSAEVFGGGTKLTVL
- apparent Kd of anti-CoaC mAbs to Coa fragments (EC50 in ELISA) [1]: highest affinity
- inhibition of binding to Fg of all proteins tested [2]: dose dependent inhibition of all proteins tested; also recorded: marked inhibition against all fragments of Coa and Efb

B2: LIG40-D8: VH SEQ ID NO: 100, VL SEQ ID NO: 130; selected against Coa-R506-636 (antibody, V domains shown)
VH: B1 VH with Q1E, Q5V, S52W, K98R, L100Y, A101H, S102G, S103D
VL: DIQMTQSPSSLSASVGDTVTITCRASQDINNYLAWFQQKPGKAPKSLISAASSLQNGVPLRFSGSASGADFTLTISGLQPEDSGTYYCQQYDVFPITFGPGTKVDIK
- binding to Coa-R506-636 (Coa-R506-636): bound
- binding to Coa-C311-636 (Coa-C311-636): bound
- binding to Coa-F311-505 and Coa-R0474-505 [3]: detected to a minor extent; also recorded: minor binding
- inhibition of LIG40 mAb binding to CoaC and CoaR by peptides (CoaC and CoaR): only impaired in its binding activity by CoaRO peptide
